# Values quoted from earlier work, collected in paper PMC5371392.
# Target: KaiC (Synechococcus elongatus) (UniProt Q79PF4)
# Sequence of UniProt Q79PF4 (Q79PF4 whole entry): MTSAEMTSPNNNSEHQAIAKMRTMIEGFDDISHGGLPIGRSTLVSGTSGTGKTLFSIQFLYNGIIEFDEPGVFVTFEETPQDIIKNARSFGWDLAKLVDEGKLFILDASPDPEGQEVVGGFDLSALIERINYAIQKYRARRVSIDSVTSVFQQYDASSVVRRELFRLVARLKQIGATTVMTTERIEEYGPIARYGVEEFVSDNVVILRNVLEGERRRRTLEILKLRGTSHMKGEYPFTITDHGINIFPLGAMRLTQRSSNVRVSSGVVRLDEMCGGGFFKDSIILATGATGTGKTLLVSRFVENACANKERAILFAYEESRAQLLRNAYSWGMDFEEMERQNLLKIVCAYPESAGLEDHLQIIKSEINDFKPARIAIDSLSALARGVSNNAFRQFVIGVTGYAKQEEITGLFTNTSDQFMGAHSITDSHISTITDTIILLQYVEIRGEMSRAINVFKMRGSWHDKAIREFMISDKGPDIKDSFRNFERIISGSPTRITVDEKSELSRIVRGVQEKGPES
substance,measurement,value
KaiA (from UniProt Q79PF6),Kd,1 nM
